Assay results as given in the DeepSol protein solubility set.

assay: soluble on expression in E. coli; label from the status in PepcDB or PDB records

Row | Sequence | soluble on expression in E. coli
1 | MAHHHHHHMRSLTRIASAGVRLDNIDLIGCVGATAAAKLPYTWQVGKSFSDNSASAAAAGGRTTSKITGSVYAVHQQHLFLPLTIEIGFGVQMKHDKDEEYVSRLVGGVLVRVNSSGTYGMLLDSSRFIMAGSAEMIILSKGQAPILRTSR | not soluble
2 | MGSDKIHHHHHHMNMFSHINVDACKTPGCKNLGILGSPDYLPQGKNVLCRACGFLFPIISARSLNLFRQAANQPWKGLVKSCPHCGGTSLKKYGFSTKGERRMYCRQCNKTFISYTAIRSDARQENLATLIGEGASLVEIRAALAIDSTGFSRELQKLSRRANQAERDFVFPAFDIAMSTRAFRVKFNGGDSSLYVLVTAEEESGKVVAISTNYSAQPVEADYQYHSDYEERLPSGTLAHLVQRKEALTMRRNVLFDVDYGPAVLYKNDPGMLVKPVLPAYRHFELVQALTDERSLNVQHYLDHECFILGGCMMANFSYLRQGRCHISFVRERGVTPPKRDLPPRLFLSGGIRNNVWRTFSTRDYAMAVCNLTGNKKVSLLRHATLNSATAFIRYVHNHPFLPHLNRMSPGNVVAVLDYLKFEYNASRN | not soluble
3 | MSLQTLSIQHGTLVTMDQYRRVLGDSWVHVQDGRIVALGVHAESVPPPADRVIDARGKVVLPGFINAHTHVNQILLRGGPSHGRQLYDWLFNVLYPGQKAMRPEDVAVAVRLYCAEAVRSGITTINDNADSAIYPGNIEAAMAVYGEVGVRVVYARMFFDRMDGRIQGYVDALKARSPQVELCSIMEETAVAKDRITALSDQYHGTAGGRISVWPAPAITPAVTVEGMRWAQAFARDRAVMWTLHMAESDHDERLHWMSPAEYMECYGLLDERLQVAHCVYFDRKDVRLLHRHNVKVASQVVSNAYLGSGVAPVPEMVERGMAVGIGTDDGNCNDSVNMIGDMKFMAHIHRAVHRDADVLTPEKILEMATIDGARSLGMDHEIGSIETGKRADLILLDLRHPQTTPHHHLAATIVFQAYGNEVDTVLIDGNVVMENRRLSFLPPERELAFLEEAQSRATAILQRANMVANPAWRSLEGHHHHHH | soluble
4 | MSTNITFHASALTRSERTELRNQRGLTIWLTGLSASGKSTLAVELEHQLVRDRRVHAYRLDGDNIRFGLNKDLGFSEADRNENIRRIAEVAKLFADSNSIAITSFISPYRKDRDTARQLHEVATPGEETGLPFVEVYVDVPVEVAEQRDPKGLYKKAREGVIKEFTGISAPYEAPANPEVHVKNYELPVQDAVKQIIDYLDTKGYLPAKKE | soluble
5 | MKTRLNKTSLNQALLPTSTAGSLPKPLWLAEPETLWSPWKLQGEELITGKHDALRLSLQDQQLAGIDIVSDGEQTRQHFVTTFIEHLNGVDFSKRKIVKIRDRYDASVPTVVGPVSRQKSVFVEDAKFLRKQTTQPIKWALPGPMTMIDTLYDDHYKSREKLAWEFAKILNEEAKELEAAGVDIIQFDEPAFNVFFDEVNDWGIACLERAIEGLKCETAVHICYGYGIKANTDWKKTLGSEWRQYEEVFPKLQKSNIDIISLECHNSHVPMELLELIRGKKVMVGAIDVATDTIETAEEVADTLRKALKFVDADKLYPCTNCGMTPLSHQVTRGKLNALSAGAEIVRKELLALR | soluble
6 | MGSDKIHHHHHHVGTVNVRSGRMRYFTNRDAPLDVEHVMAPAAFPPGFPAVRLEAESYWDGGIYSNTPLEAVLDDRPRRDSVIFSVQLWPSSGPEPESILQVMSRQRDIQYSSRAESHLDRQKQIHRLRHVIRELGQHLPEEQRNAPAVRELLDWGCGTTMQVLELDAPAFDNDDLNRDIDFSSAGIERRWRAGYEDTARLLKLAPWRETLDPMEGISVFRMASAESRK | not soluble
7 | MSQGVEFNRLMLDMRAMQADAMSLPKVTAAPELAPGQSTFADMLGQAIGKVHETQQASTQLANAFEIGKSGVDLTDVMIASQKASVSMQAMTQVRNKLVQAYQDIMQMPV | not soluble
8 | MAQKILVEQVVKRKAIVVQPKDTVDRVAKILSRNKAGSAVVMEGDEILGVVTERDILDKVVAKGKNPKEVKVEEIMTKNPVKIEYDYDIEDVIELMTEKGVRRVLVTKFGKPIGFVTAADILAALASHNHEEEEEEREEESEVYGICEVCGQYGALYKVYHEGRELWVCETCKDLIEGR | soluble
9 | MSLSDFDYIQKNTPPEFPEKFKTALLPENIKKNRYSDVLANDDTRVKLNNNGYINANYIFQGRMIASQAPTIETIPDFLQMIIEQQVPIVIMLTKCKEKTRIKATPYWGYKSEGGKKVFGNYTVNTIDTLYDDVEEDKFMEDIQIRYLQIIYEDGVYSFIQIHYMGWPDFGVPLNPKDALDIVYIQYIIGTTSKFSNRNLVCVHCSAGVGRTGVYCLLSRIVEMVTYEILEKSETYSKQRSTSSSSKVREVEDRIEEILLSHPVISYEDCEVILPELVLSIRNERSKMVQTKEQYDFICETVNCFYEDALDSINQYYEVIDALTPLLQEKHSEIVQDFIKRNEEGHHHHHH | soluble
10 | GSDKIHHHHHHMLTMKDIIRDGHPTLRQKAAELELPLTKEEKETLIAMREFLVNSQDEEIAKRYGLRSGVGLAAPQINISKRMIAVLIPDDGSGKSYDYMLVNPKIVSHSVQEAYLPTGEGCLSVDDNVAGLVHRHNRITIKAKDIEGNDIQLRLKGYPAIVFQHEIDHLNGVMFYDHIDKNHPLQPHTDAVEV | soluble
11 | MSLGELFAVFNEKLTIPEQEALMFLYAYMPTGDVTDYTGDYYLENVRLSDQARREMPWGKEIPDDVFRHFVLPIRVNNENLDDSRRVFYNELKDRVKNLSLHDAVLEVNHWCHEKVIYTPSDARTSAPLASVKTAYGRCGEESTFTVAALRSVGIPARQVYTPRWAHTDDNHAWVEAWVDGKWYFFGACEPEPVLNLGWFNAPASRGMLMHTKVFGRYTGQEEIMYETPNYTEINVIDNYAPTAKGSVLVTDAEGQPVADATVEFKVYNYAEFYTVATKHTDRSGHASLTAGKGDMLVWASKDGRFGYSKLSFGKDNELKITLDKNASETYSLPLDIVPPAEGEGHHHHHH | not soluble
12 | MSKIYVLDTNVLLQDPNAIFSFEENEVVIPAVVLEEVDSKKRYMDEVGRNARHVSKLIDALRQKGRLHEHVPLDTGGTLRIELNHRSFHQLQEIFIEKTNDNRILAVAKNLSLEEETKENGRPVILVSKDVLVRVKADAIGLLAEDFLNDRVVDNDEMY | not soluble
13 | MGSDKIHHHHHHGSITVILGPMFSGKTTELLRLHDRQIIAKRTCVLVKYAGDTRYDADLVATHSKMTGQGRTVKAHRLSEVQSQIFNDEVQVVSIDEGQFFEDLAETCEELAQRGKVVCVAALNGTFERKPFPQISLLLPYANEIKQVTAVCVECGSQANFSFRSTLDKKVEVIGGSDTYTALCRECY | not soluble
14 | GSHMASSEDEKLSFEAVRNIHKLMDDDANGDVDVEESDEFLREDLNYHDPTVKHSTFHGEDKLISVEDLWKAWKSSEVYNWTVDEVVQWLITYVELPQYEETFRKLQLSGHAMPRLAVTNTTMTGTVLKMTDRSHRQKLQLKALDTVLFG | soluble
15 | MEKMYNVGKIVNTHGLIGEIRVIATTDFPEERFQVGNTVYLFEKNSKKPEKLIIRSHRKHKNFDLLMFEGFTGIHQVERMKEGVLKIKETQLTNLEENEFYFHEIIGCTVVTTDGEELGEITEILTPGANDVWVVKGADKKEKLIPYIADVVKEINIDDQKITIEVMEGLLD | soluble
16 | MDKIEVRGARTHNLKNINLVIPRDKLIVVTGLSGSGKSSLAFDTLYAEGQRRYVESLSAYARQFLSLMEKPDVDHIEGLSPAISIEQKSTSHNPRSTVGTITEIHDYLRLLFARVGEPRCPDHDVPLAAQTVSQMVDNVLSQPEGKRLMLLAPIIKERKGEHTKTLENLASQGYIRARIDGEVCDLSDPPKLELQKKHTIEVVVDRFKVRDDLTQRLAESFETALELSGGTAVVADMDDPKAEELLFSANFACPICGYSMRELEPRLFSFNNPAGACPTCDGLGVQQYFDPDRVIQNPELSLAGGAIRGWDRRNFYYFQMLKSLADHYKFDVEAPWGSLSANVHKVVLYGSGKENIEFKYMNDRGDTSIRRHPFEGVLHNMERRYKETESSAVREELAKFISNRPCASCEGTRLRREARHVYVENTPLPAISDMSIGHAMEFFNNLKLAGQRAKIAEKILKEIGDRLKFLVNVGLNYLTLSRSAETLSGGEAQRIRLASQIGAGLVGVMYVLDEPSIGLHQRDNERLLGTLIHLRDLGNTVIVVEHDEDAIRAADHVIDIGPGAGVHGGEVVAEGPLEAIMAVPESLTGQYMSGKRKIEVPKKRVPANPEKVLKLTGARGNNLKDVTLTLPVGLFTCITGVSGSGKSTLINDTLFPIAQRQLNGATIAEPAPYRDIQGLEHFDKVIDIDQSPIGRTPRSNPATYTGVFTPVRELFAGVPESRARGYTPGRFSFNVRGGRCEACQGDGVIKVEMHFLPDIYVPCDQCKGKRYNRETLEIKYKGKTIHEVLDMTIEEAREFFDAVPALARKLQTLMDVGLTYIRLGQSATTLSGGEAQRVKLARELSKRGTGQTLYILDEPTTGLHFADIQQLLDVLHKLRDQGNTIVVIEHNLDVIKTADWIVDLGPEGGSGGGEILVSGTPETVAECEASHTARFLKPML | soluble
17 | MTDKWLDTINWSADGLIPAIAQDKNNGKILMVAWMNREALKRTVESGEAVYWSRSRKKLWHKGEESGHTQKISAIHLDCDEDILLLSVEQKGGIACHTGRQSCFFRQLKNGEWVVTEPVIKDPSQIYTK | not soluble
18 | MAHHHHHHMKDVDTARVLSELVNALQRVTAQPAWNTVQEPKAITFRLEDLFSTPNSVLASAATEGDSPEHGGNASEMNSPDMAAASFVNSGVGDGLGETATPLAPLREMSDHFSSNKKYAEEGLQDVFTMLQRLIDGTYSTAGCAALACMGQEIDKMITLMRPVALIDMRAAVYMNSLCSNIAAAKESRMQLNAPLVWDFVTNTVQTYITDHPVLYTALVAISNLSYLKDLKLTREDCGVLSRLIYPVYTEVHIVEVWAAMICNLTAHHPETVQVFLELGVVEVLERLVLYFGEEGRTVIRCLQCLSNLSMGFITGHSPALAE | not soluble
19 | MGSDKIHHHHHHMNRISVVILNWNGCEMLRSFLPSVLRYSEAEGVEVCVADNGSTDQSVEMLRREFPSVRRILLDGNHGFADGYNLALRQVEAEYVVLLNSDVEVTGQWLQPMAAYLDAHPEVAACQPKIRSWRQKEWFEYAGAAGGFIDRYGYPFCRGRVMGVVEADRGQYDTVLPIFWATGAAMFIRLADYREAGGLDGRFFAHMEEIDLCWRLRARGRGIVCIPQSVVYHVGGATLKKENPHKTFLNFRNNLVMLYKNLPDRELAGVMRVRCWLDYIAAATFALKGQPANAKAVVRARREFKLLRDSFRDARAENLRKTSSHFIPERIKSSILVQFYVKGRKFFSQLSDLKG | not soluble
20 | MTDHALLLVNLGSPASTQVADVRSYLNQFLMDPYVIDIPWPLRRLLVSLILIKRPEQSAHAYASIWWDEGSPLVVLSKRLQQAMKKEWSHGPVELAMRYGEPSIETVLTRLSEQGFKKVTLAPLYPQFADSTVTTVIEEAKRVVRAKSLKMQFSVLQPFYDQPEYVSALVESVRPHLEQPYDHLLLSFHGLPERHLHKRDPTGKHCLKDDCCMTAPAQVVATCYRAQCLQSAAAFAKRMGIPDGKWSVSFQSRLGRAKWIEPYTEARLDELAAQGVKKLLVMCPAFVADCIETLEEIGDRGAEQFKEAGGEELILVPCLNDDPNWAKELNRLCERAPLML | not soluble
21 | MGSDKIHHHHHHMNSHWSEYWQQGHTTSFGEALSGNYEGVLKNVWEPVFDGLTENFLVVDVGTGNGSLPLLLRDGLSKVDLTGKVIGVDLAEVTLANSVSNNNQNIDIALMSNTRCEQLPFESNSVDLYISQFGFEYSNIEQSLEEATRVLKDDGQFVIVCHHNRSMILNRNRRILTLIDKDEVNLLINCLGKMANAMGNVSNQEDVERIKKDLQCEQIRAEINDLIKLLVMFDEAAAQDCDLMRFVAQFFKAGLFWPVTKKLEFIEFITIQMDTLKLRLTELVNAAFDETKLATFIAKFHQNNMVLNELKVLKNEQNEVLGWYLHGSKFI | not soluble
